Measurements: the supplement of paper PMC9170038

Test system: MS2 coat protein
Test: apparent KD of MS2 coat protein; designed switch direction (-1 OFF switch, 1 ON switch): 1; higher = weaker reporter binding
Outline: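 Three titration conditions were used: no input, 200 uM small-molecule ligand, and an oligonucleotide input. In each, SNAP-549-labelled MS2 coat protein was raised from 0.7 or 1.5 nM, doubling, to 3 µM over designed RNA switches transcribed on Illumina chips by stalled E. coli RNA polymerase. Curve fits of normalised cluster fluorescence gave values whose per-design median over clusters is the apparent KD.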

[1] = Eterna round: R95, input ligand: FMN 200 uM
[2] = Eterna round: R95, input ligand: microRNA oligo, concentration not stated
[3] = Eterna round: R95, input ligand: none
[4] = input ligand: microRNA oligo, concentration not stated

UCUUGGUUUUUGCUCGUUUUUUGUGUUGAACAUGAGGAUCACCCAUGUAUUGUACGGUCCAAUUUAAUAAUAAUCCA [JMF 74] (puzzle: Sensor for hsa-mir-208a)
apparent KD of MS2 coat protein [1]: 59 nM | apparent KD of MS2 coat protein [2]: 57.1 nM | apparent KD of MS2 coat protein [3]: 82.1 nM

UCUUGGUUUUUGCUCGUUUUUUGUGUUGAACAUGAGGAUCACCCAUGUAUUGUACGGUCCAGUUUAGUAAUGGUCCA [JMF 7] (puzzle: Sensor for hsa-mir-208a)
apparent KD of MS2 coat protein [1]: 26.3 nM | apparent KD of MS2 coat protein [2]: 16.3 nM | apparent KD of MS2 coat protein [3]: 27.8 nM

UCUUGGUUUUUGCUCGUUUUUUGUGUUGAACAUGAGGAUCACCCAUGUAUUGUACGGUCCGAUUUAAUAAUGGUCCA [JMF 38] (puzzle: Sensor for hsa-mir-208a)
apparent KD of MS2 coat protein [1]: 30.3 nM | apparent KD of MS2 coat protein [2]: 18.3 nM | apparent KD of MS2 coat protein [3]: 32.4 nM

UGCCAUAGUAUAUUGGUACGUGCUUUUUGACAUGAGGAUCACCCAUGUCCUCGUCAUAUGCGCAGUCCGUAGACUGC (puzzle: Sensor for hsa-mir-208a)
apparent KD of MS2 coat protein [1]: 328 nM | apparent KD of MS2 coat protein [2]: 234 nM | apparent KD of MS2 coat protein [3]: 374 nM

UGCUAGGAUAUCUUGAGGAUCACCCAGGAGAAGGAGCCAAGCUAGGAUAUCCUGAGGAUCACCCAGGAGAAGGAGCACAUACUC [pwkr ssNG3 DX 2xF5 +2xFMN.13] (Eterna round: R96, puzzle: Same State NG 3)
apparent KD of MS2 coat protein (input ligand: FMN 200 uM): 107 nM | apparent KD of MS2 coat protein [4]: 59.6 nM | apparent KD of MS2 coat protein (input ligand: none): 102 nM

UGCUUCAUGUAAGGAUAUGCAGCCGUUUCGGCUGCAGAAGGUACUAUAAUACAUGAGGAUCACCCAUGUCUCUCGCAUUGCGAG [salish99_SSng1_r04_301] (Eterna round: R96, puzzle: Same State NG 1)
apparent KD of MS2 coat protein [4]: 111 nM

UGGCUCAGACGAGGAUAUGGUCAUGGCGCUUCGGCGCAUACAUGAGGAUCACCCAUGUAGGGUGAUCAGAAGGUGUCUGAGCCA [SSNG2/9-B2] (Eterna round: R96, puzzle: Same State NG 2)
apparent KD of MS2 coat protein (input ligand: FMN 200 uM): 210 nM | apparent KD of MS2 coat protein [4]: 827 nM | apparent KD of MS2 coat protein (input ligand: none): 1100 nM

UGGCUCAGAGCAGGAUAUAUGUCUCGAGCUUCGGCUCGAGACAUGAGGAUCACCCAUGUAAUAACAUAGAAGGGCUCUGAGCCA [SSNG2/1-B2] (Eterna round: R96, puzzle: Same State NG 2)
apparent KD of MS2 coat protein (input ligand: FMN 200 uM): 16.3 nM | apparent KD of MS2 coat protein [4]: 41.7 nM | apparent KD of MS2 coat protein (input ligand: none): 74.7 nM

UGGCUCAGAGCAGGAUAUAUGUGGUCACAUGAGGAUCACCCAUGUCUCGAGCUUCGGCUCGAGGCAUAGAAGGGCUCUGAGCCA [SSNG2/5-B2] (Eterna round: R96, puzzle: Same State NG 2)
apparent KD of MS2 coat protein (input ligand: FMN 200 uM): 550 nM | apparent KD of MS2 coat protein [4]: 48 nM | apparent KD of MS2 coat protein (input ligand: none): 58.1 nM

UGGCUGGUGCUAGGAUAUACAUGAGGAAUCCUCGUAGAAGGAUCACGACAUGAGGAUCACCCAUGUAGCCGUCCGUAGACGGCU [salish99_SSNG1_r04_006] (Eterna round: R96, puzzle: Same State NG 1)
apparent KD of MS2 coat protein (input ligand: FMN 200 uM): 1930 nM | apparent KD of MS2 coat protein [4]: 190 nM | apparent KD of MS2 coat protein (input ligand: none): 312 nM

UGGCUGGUGCUAGGAUAUGCAUGAGGCCUCCUCGUAGAAGGAGCACGACAUGAGGAUCACCCAUGUGGCCGUCCGUGGACGGCU [salish99_SSNG1_r04_014] (Eterna round: R96, puzzle: Same State NG 1)
apparent KD of MS2 coat protein (input ligand: FMN 200 uM): 45.4 nM | apparent KD of MS2 coat protein [4]: 44.9 nM | apparent KD of MS2 coat protein (input ligand: none): 56.1 nM

UGUCCAGCCUGAGCUGGACAAAAGCAUGUACAUGAGGAUCACCCAUGUUCAUGUACAAGCUUUUUGCUCGUCUUAAA [salish99_208a_r3_030] (puzzle: Sensor for hsa-mir-208a)
apparent KD of MS2 coat protein [1]: 325 nM | apparent KD of MS2 coat protein [2]: 14.7 nM | apparent KD of MS2 coat protein [3]: 370 nM

UGUCCAGCCUGAGCUGGACAAAAGCAUGUACAUGAGGAUCACCCAUGUUCAUGUACAAGCUUUUUGCUCGUCUUAUA [salish99_208a_r3_044] (puzzle: Sensor for hsa-mir-208a)
apparent KD of MS2 coat protein [1]: 404 nM | apparent KD of MS2 coat protein [2]: 13.8 nM | apparent KD of MS2 coat protein [3]: 415 nM

UGUUGAAACUGAGGAUAUGGCGUGUGACGAAUGCCAGAAGGUAGUAGGAGCAACAUGAGGAUCACCCAUGUCCGGCGCAGACCC [Eternabot solution 16] (Eterna round: R96, puzzle: Same State NG 1)
apparent KD of MS2 coat protein (input ligand: FMN 200 uM): 85.6 nM | apparent KD of MS2 coat protein [4]: 61.3 nM | apparent KD of MS2 coat protein (input ligand: none): 71.3 nM

UGUUGGAAGUGAGGAUAUGGGAAAGGAAGUGUACCAGAAGGCACAUCUAGCCGGAACAUGAGGAUCACCCAUGUACCACACUAC [PowerStrip SSNG 1.15] (Eterna round: R96, puzzle: Same State NG 1)
apparent KD of MS2 coat protein (input ligand: FMN 200 uM): 128 nM | apparent KD of MS2 coat protein [4]: 24.6 nM | apparent KD of MS2 coat protein (input ligand: none): 30.7 nM

UGUUGUAUUACAGGAUAUCUAGUAGUUUUAUUUAGAGAAGGGUAUUCACAUGAGGAUCACCCAUGUAUAUACGAGGAAGUUGUG [JMF's solution 36] (Eterna round: R96, puzzle: Same State NG 1)
apparent KD of MS2 coat protein [4]: 29.7 nM

UGUUGUAUUACAGGAUAUCUAGUAUUUUAAUUUAGAGAAGGGUAUUCACAUGAGGAUCACCCAUGUAUAUACGAGGAAGUUGUG [JMF's solution 43] (Eterna round: R96, puzzle: Same State NG 1)
apparent KD of MS2 coat protein [4]: 38.6 nM

UUAAAACAUGAGGAUCACCCAUGUCAACAAAGUCGAGGAUAUGGGCAAAUAAAAUAAGAACCAGAAGGCGAAUAAU [salish99_SS1_r3_006] (puzzle: Same State 1)
apparent KD of MS2 coat protein [1]: 38.2 nM | apparent KD of MS2 coat protein [2]: 434 nM | apparent KD of MS2 coat protein [3]: 409 nM

UUAAUGAAGUAAGGAUAUACAUGAGGAUCACUCGUAGAAGGUACUAUACAUGAGGAUCACCCAUGUGCCGGUCAGAAGACUGGA [Mat - Same State NG 1 - JL mod - D5] (Eterna round: R96, puzzle: Same State NG 1)
apparent KD of MS2 coat protein (input ligand: FMN 200 uM): 755 nM | apparent KD of MS2 coat protein [4]: 534 nM | apparent KD of MS2 coat protein (input ligand: none): 723 nM

UUAAUGAUGAUAGGAUAUACAUGAGGAAUCCUCGUAGAAGGAUCAUGACAUGAGGAUCACCCAUGUAACGCUCCGUAGAGCGUA [JL SSNG1 1.16] (Eterna round: R96, puzzle: Same State NG 1)
apparent KD of MS2 coat protein (input ligand: FMN 200 uM): 220 nM | apparent KD of MS2 coat protein [4]: 94 nM | apparent KD of MS2 coat protein (input ligand: none): 250 nM

UUAAUGAUGAUAGGAUAUACAUGAGGAAUUCUCGUAGAAGGAUCAUGACAUGAGGAUCACCCAUGUAACGCUCCGUAGAGCGUA [JL SSNG1 1.15] (Eterna round: R96, puzzle: Same State NG 1)
apparent KD of MS2 coat protein (input ligand: FMN 200 uM): 572 nM | apparent KD of MS2 coat protein [4]: 385 nM | apparent KD of MS2 coat protein (input ligand: none): 1060 nM

UUAAUGAUGUAAGGAUAUACAUGAGGAUUUCUCGUAGAAGGUACAGGACAUGAGGAUCACCCAUGUGUCGCUCAGAAGAGCGUA [Mat - Same State NG 1 - JL mod - D17] (Eterna round: R96, puzzle: Same State NG 1)
apparent KD of MS2 coat protein (input ligand: FMN 200 uM): 509 nM | apparent KD of MS2 coat protein [4]: 505 nM | apparent KD of MS2 coat protein (input ligand: none): 636 nM

UUAAUUAAUUAAUUAUACAUGAGGAUCACCCAUGUAAGUGAUCAGGAUAUCAGCUCGUUUAGAGCUGAGAAGGGAUCCAUGUAA [SSNG3/14-A3] (Eterna round: R96, puzzle: Same State NG 3)
apparent KD of MS2 coat protein (input ligand: FMN 200 uM): 85.7 nM | apparent KD of MS2 coat protein [4]: 135 nM | apparent KD of MS2 coat protein (input ligand: none): 150 nM

UUAGCACAUGAGGAUCACCCAUGUACUAUACUCAUAGGAUAUACAAAGUCUUAAGACGUGGUAGAAGGGUGAGGAA [Zaateddi] (puzzle: Same State 1)
apparent KD of MS2 coat protein [1]: 101 nM | apparent KD of MS2 coat protein [2]: 106 nM | apparent KD of MS2 coat protein [3]: 128 nM

UUAUAACAUGAGGAUCACCCAUGUCAACAAAGUCGAGGAUAUGGGCAAUUAUUAUAAGAACCAGAAGGCGAAUAUU [Mat - Same State 1 - Mod of UCT - D32] (puzzle: Same State 1)
apparent KD of MS2 coat protein [1]: 35.5 nM | apparent KD of MS2 coat protein [2]: 342 nM | apparent KD of MS2 coat protein [3]: 230 nM

UUAUACUAGAGAGGAUAUGCAGAGGAUCACCCUGCAGAAGGCUCAUUAGAGAGGAUAUGCAGAGGAUCACCCUGCAGAAGGCUC [pwkr ssNG DX.21] (Eterna round: R96, puzzle: Same State NG 1)
apparent KD of MS2 coat protein (input ligand: FMN 200 uM): 10.7 nM | apparent KD of MS2 coat protein [4]: 22.2 nM | apparent KD of MS2 coat protein (input ligand: none): 20.1 nM

UUCACCUUUUUUUACAUGAGGAUCACCCAUGUUUACCCUACGUAGGAUAUCGAUGAAUGAUUGUACGAGAAGGACGUAGUAAGU [JR_SSND3_Sub057] (Eterna round: R96, puzzle: Same State NG 3)
apparent KD of MS2 coat protein (input ligand: FMN 200 uM): 19.1 nM | apparent KD of MS2 coat protein [4]: 30.5 nM | apparent KD of MS2 coat protein (input ligand: none): 36.1 nM

UUCCCAGCGGGAGGAUAUGGUGCCUUGUUGGUGCUAGAAGGUCCAACAUGAGGAUCACCCAUGUGGGAGUGGUCUAAUGACCUC [SS NG10LRO08] (Eterna round: R96, puzzle: Same State NG 1)
apparent KD of MS2 coat protein (input ligand: FMN 200 uM): 301 nM | apparent KD of MS2 coat protein [4]: 181 nM | apparent KD of MS2 coat protein (input ligand: none): 347 nM

UUCUCACUGGUAGGAUAUGUAGGAUAUGUACAUGAGGAUCACCCAUGUCAGUUAAUGACAGAAGGAUAGAAGGACCACAUCUCU [pwkr ssNG2 2FMN 1F5s.1] (Eterna round: R96, puzzle: Same State NG 2)
apparent KD of MS2 coat protein (input ligand: FMN 200 uM): 198 nM | apparent KD of MS2 coat protein [4]: 139 nM | apparent KD of MS2 coat protein (input ligand: none): 146 nM

UUGAAGAACAUAGGAUAUUGAAUACAUAUGUUUAACAUGAGGAUCACCCAUGUGGGUUGCGGUAUCGAGAAGGAUGAAUAAAAG [Mat - Same State NG 2 - JL mod - D15] (Eterna round: R96, puzzle: Same State NG 2)
apparent KD of MS2 coat protein (input ligand: FMN 200 uM): 328 nM | apparent KD of MS2 coat protein [4]: 259 nM | apparent KD of MS2 coat protein (input ligand: none): 256 nM

UUGAAGAAUUAAGGAUAUUGAAUACAUAUGUUUAACAUGAGGAUCACCCAUGUGGGUUGCGGUGUCGAGAAGGUAAAAUACUAG [Mat - same State NG 2 - JL mod - D97] (Eterna round: R96, puzzle: Same State NG 2)
apparent KD of MS2 coat protein (input ligand: FMN 200 uM): 236 nM | apparent KD of MS2 coat protein [4]: 278 nM | apparent KD of MS2 coat protein (input ligand: none): 270 nM
